Reference: US20110143993A1 (BRIGHAM AND WOMEN S HOSPITAL, published 2011)
No end group written: not given here.

How the values were obtained:
[1] = target: T1, bovine serum albumin (bovine, UniProt P02769 25-607); test: phage ELISA on BSA-coated wells, anti-M13 HRP/ABTS
T1 construct: also called BSA
Description: The clones were tested against the random library (R0) for binding to Matrigel (lighter shaded bars) or BSA (black bars). Bound phages were labeled with peroxidase-conjugated anti-M13 monoclonal antibodies (mAbs), and ABTS absorbance at 405 nm was read against a reference wavelength of 490 nm (mean±s.d., n=3). (**) P<0.01; (***) P<0.001, all compared with R0 (one-way analysis of variance with Tukey post-hoc test).
96-well plates were coated with 100 μL 1/50 dilutions of Matrigel in TBS overnight at 4° C., or TBS buffer only. Plates were blocked with 3% BSA/TBS for 2 h at RT and washed three times. 10¹⁰ p.f.u. of each phage clone was added in 0.5% TBST in triplicate to either Matrigel or BSA-coated wells. Bound phage particles were detected with peroxidase-conjugated mouse anti-M13 monoclonal antibodies at 1/5000 dilution (Amersham Pharmacia Biotech, Piscataway, N.J.). After a 1 h incubation, the reaction was developed with 2,2′-azino-bis(3-ethylbenzthiazoline-6-sulphonic acid) (ABTS) (Amersham) and the absorbance was read at 405 nm against a reference wavelength of 490 nm with a SpectraMax Plus 384 Microplate reader (Molecular Devices, Sunnyvale, Calif.).

[2] = target: T2, Matrigel growth factor reduced LDEV free (basement membrane extract rich in collagen IV and laminin); test: phage titer count of eluted phage, input 10^12/mL p.f.u., against random library R0, n=3
T2 construct: A mixture coated on plates, not one protein

T1 sequence (P02769 25-607 limits assumed): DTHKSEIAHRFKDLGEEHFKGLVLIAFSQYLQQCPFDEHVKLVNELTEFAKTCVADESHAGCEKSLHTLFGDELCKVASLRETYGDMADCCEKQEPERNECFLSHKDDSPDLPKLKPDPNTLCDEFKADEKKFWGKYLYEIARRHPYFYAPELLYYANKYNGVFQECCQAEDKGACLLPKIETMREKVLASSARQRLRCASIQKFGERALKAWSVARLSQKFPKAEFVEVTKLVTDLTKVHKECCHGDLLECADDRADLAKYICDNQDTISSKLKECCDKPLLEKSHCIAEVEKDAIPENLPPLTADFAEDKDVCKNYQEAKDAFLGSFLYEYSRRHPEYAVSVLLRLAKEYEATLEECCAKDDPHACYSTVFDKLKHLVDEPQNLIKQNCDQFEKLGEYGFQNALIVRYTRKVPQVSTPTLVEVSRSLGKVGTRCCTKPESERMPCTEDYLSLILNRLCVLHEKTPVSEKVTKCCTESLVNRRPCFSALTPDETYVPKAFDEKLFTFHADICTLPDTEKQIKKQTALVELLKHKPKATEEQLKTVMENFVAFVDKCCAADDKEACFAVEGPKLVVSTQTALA

B1: phage clone C-8 (HWGSLRA displayed on pIII of M13 phage) (peptide)
peptide: HWGSLRA
notes: 100% of the round 5 clones; not shown: minor coat protein pIII of M13 filamentous phage (Ph.D.-7 library, New England Biolabs)
- binding result [1]: no binding (tested: 10^10 p.f.u. of each phage clone)

B2: phage clone A-8 (KVWSLPQ displayed on pIII of M13 phage) (peptide)
peptide: KVWSLPQ
notes: Whole phage particle displaying the heptamer; tested as phage, detected with anti-M13 antibody; not shown: minor coat protein pIII of M13 filamentous phage (Ph.D.-7 library, New England Biolabs)
- binding result [1]: no binding (tested: 10^10 p.f.u. of each phage clone)

B3: phage clone C-10 (KIWKLPQ displayed on pIII of M13 phage) (peptide)
peptide: KIWKLPQ
notes: as for B2
- binding result [1]: no binding (tested: 10^10 p.f.u. of each phage clone)

B4: phage clone C-11 (KLWVLPK displayed on pIII of M13 phage) (peptide)
peptide: KLWVLPK
notes: Whole phage particle displaying the heptamer; tested as phage (ELISA with anti-M13 antibody, titer counts); also called Phage C-11; not shown: minor coat protein pIII of M13 filamentous phage (Ph.D.-7 library, New England Biolabs)
- fold binding compared to the library (R0), phage titer [2]: ~300 fold
- binding result [1]: no binding (tested: 10^10 p.f.u. of each phage clone)

B5: phage clone A-9 (KIFVWPY displayed on pIII of M13 phage) (peptide)
peptide: KIFVWPY
modifications: not fully specified
notes: as for B2
- binding result [1]: no binding (tested: 10^10 p.f.u. of each phage clone)
